# ± gives the standard deviation of the averaged measurements.
# B1: library; a variant is named by its letters at N, in order (parent)
# chain: GCUGUCACCGGUGCUUGGUACGUUAUAUUCAGCCGGUCUGAUGAGUCUNNNNNNAGACGAAACAGC
# How the values were obtained:
# (6R,S)-folinic acid [1] = variants of: B1; assay: FACS-Seq fitted mean relative fluorescence mCherry/BFP without ligand (log10 relative fluorescence); HEK293T overexpressing SLC46A1; higher = higher reporter protein expression; details: without (6R,S)-folinic acid; ligand present: no
# Outline: (§1)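 HEK293T libraries were made by lentiviral transduction with a ribozyme-switch mCherry reporter and an EF1α-BFP marker, enriched, and incubated with or without ligand for 48 h. Cells were sorted into 6 mCherry/BFP bins, and each bin's genomic DNA was PCR-amplified, barcoded and run on MiSeq. Fluorescence was derived by normal fitting of the bin counts. The fitted log10(mCherry/BFP) mean was scaled to five spiked-in control ribozymes.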
# (6R,S)-folinic acid [2] = variants of: B1; assay: normalized RNA/DNA level without ligand (relative to sTRSVctl = 100) (log10 (% of sTRSVctl)); HEK293T overexpressing SLC46A1; higher = less ribozyme self-cleavage, higher mRNA level; details: without (6R,S)-folinic acid; ligand present: no
# Outline: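 HEK293T cells were transfected with library plasmids carrying ribozyme switches linked to an mCherry reporter, or an eGFP reporter in some ligand experiments, at 4 µg per well of a 6-well plate, with any ligand added 1 h beforehand. After 72 h, total RNA was extracted with EDTA, reverse-transcribed, amplified, barcoded and sequenced. RNA level was defined as RNA reads over DNA reads, normalized to a spiked-in non-cleaving sequence or to the top-ranked sequences. That value was multiplied by 100 and converted to log10, the top set was 25 sequences, and only sequences with ≥100 DNA reads were retained.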
# (6R,S)-folinic acid [3] = variants of: B1; assay: FACS-Seq fitted mean relative fluorescence mCherry/BFP with ligand (log10 relative fluorescence); HEK293T overexpressing SLC46A1; ligand concentration (+) FACS-Seq: 6 mM; higher = higher reporter protein expression; details: with (6R,S)-folinic acid; ligand present: yes
# Outline: as §1
# (6R,S)-folinic acid [4] = variants of: B1; assay: normalized RNA/DNA level with ligand (relative to sTRSVctl = 100) (log10 (% of sTRSVctl)); HEK293T overexpressing SLC46A1; ligand concentration (+) RNA-Seq: 6 mM; higher = less ribozyme self-cleavage, higher mRNA level; details: with (6R,S)-folinic acid; ligand present: yes
# Protocol: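 Hammerhead (sTRSV) ribozyme switch libraries with a ligand aptamer grafted on stem I and a randomized N4-6 loop II, cloned into the 3' UTR of mCherry and transiently transfected into HEK293T cells; RNA-Seq 72 h post transfection with ligand added 1 h before transfection; RNA read count / plasmid DNA read count normalized to the non-cleaving sTRSVctl (x100), log10; sequences with >100 DNA reads. FACS-Seq: lentiviral library sorted into 6 bins after 48 h ligand, log-normal fit mean of mCherry/BFP scaled to controls. Printed sequences are partial switch sequences.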
Variant,"FACS-Seq fitted mean (log10) ((6R,S)-folinic acid [1])","normalized RNA/DNA level without ligand (log10) ((6R,S)-folinic acid [2])","FACS-Seq fitted mean (log10) ((6R,S)-folinic acid [3])","normalized RNA/DNA level with ligand (log10) ((6R,S)-folinic acid [4])"
AGGUGG,0.777 ± 0.14,1.977 ± 0.0086,0.549 ± 0.26,2.05 ± 0.045
AGGUGA,0.616 ± 0.086,1.964 ± 0.0069,0.768 ± 0.25,2.03 ± 0.028
AGGUGU,0.0941 ± 0.074,1.954 ± 0.015,0.266 ± 0.017,2.0099 ± 0.00041
AGCUUG,0.529 ± 0.0056,1.964 ± 0.002,0.349 ± 0.32,2.03 ± 0.036
AGGAGA,0.26 ± 0.062,1.931 ± 0.007,0.172 ± 0.078,2.018 ± 0.017
AGGAGG,0.585 ± 0.15,1.922 ± 0.0095,0.614 ± 0.2,2.05 ± 0.03
AGGUCC,0.442 ± 0.027,2.04 ± 0.0067,0.429 ± 0.22,2.03 ± 0.021
AGGAUA,0.115 ± 0.081,1.945 ± 0.0066,0.116 ± 0.17,2 ± 0.049
UGGCCA,0.74 ± 0.1,2.04 ± 0.014,0.432 ± 0.081,2.057 ± 0.014
UGCUAA,0.427 ± 0.062,1.97 ± 0.026,0.537 ± 0.11,2.018 ± 0.016
UGCUAG,0.312 ± 0.12,1.76 ± 0.028,0.441 ± 0.057,1.972 ± 0.014
CGGAUG,0.00208 ± 0.054,2 ± 0.024,-0.0609 ± 0.15,2.02 ± 0.043
CGGAUA,0.0197 ± 0.04,1.9689 ± 0.0014,-0.118 ± 0.034,1.98 ± 0.061
GGGGCC,-0.232 ± 0.1,2.05 ± 0.023,-0.6 ± 0.34,2.05 ± 0.015
CGCAUU,0.241 ± 0.21,2.015 ± 0.0023,0.576 ± 0.31,1.99 ± 0.039
CGCAUA,0.387 ± 0.012,1.98 ± 0.0046,0.156 ± 0.073,2 ± 0.059
AGAUUA,0.568 ± 0.048,2.001 ± 0.018,0.535 ± 0.036,2.01 ± 0.037
AGAUUC,0.551 ± 0.08,2.05 ± 0.0077,0.54 ± 0.24,2.04 ± 0.042

Variant,"FACS-Seq fitted mean (log10) ((6R,S)-folinic acid [1])","normalized RNA/DNA level without ligand (log10) ((6R,S)-folinic acid [2])","FACS-Seq fitted mean (log10) ((6R,S)-folinic acid [3])","normalized RNA/DNA level with ligand (log10) ((6R,S)-folinic acid [4])"
UGGGUG,-0.154 ± 0.034,1.687 ± 0.0083,0.261 ± 0.016,1.95 ± 0.057
UGAUCG,0.0489 ± 0.16,1.84 ± 0.021,0.0432 ± 0.082,1.992 ± 0.016
UGCCGG,0.22 ± 0.012,1.92 ± 0.011,0.707 ± 0.05,2.006 ± 0.018
UGCUUG,0.46 ± 0.098,1.76 ± 0.018,0.655 ± 0.047,1.96 ± 0.034
AGGGAG,0.271 ± 0.18,1.8747 ± 0.0018,0.349 ± 0.099,1.99 ± 0.046
AGGGAC,-0.124 ± 0.15,1.972 ± 0.011,0.0745 ± 0.15,1.994 ± 0.01
UGCUCU,0.473 ± 0.12,2.056 ± 0.014,0.2 ± 0.019,2.06 ± 0.029
UGCUCG,0.493 ± 0.023,1.84 ± 0.06,0.49 ± 0.049,1.96 ± 0.072
UGCGUG,-0.00857 ± 0.093,1.6768 ± 0.0013,0.36 ± 0.1,1.95 ± 0.045
UGGACG,0.175 ± 0.0034,1.778 ± 0.013,0.472 ± 0.059,1.97 ± 0.029
UGGACA,0.24 ± 0.025,1.95 ± 0.0054,0.186 ± 0.017,2.019 ± 0.019
UGGACC,0.168 ± 0.11,2.01 ± 0.033,0.0739 ± 0.15,1.97 ± 0.033
UGCGCU,0.293 ± 0.033,2.043 ± 0.0054,0.428 ± 0.044,2.04 ± 0.03
CGGUAA,0.149 ± 0.092,1.954 ± 0.014,0.184 ± 0.083,1.993 ± 0.013
CGGCAU,0.32 ± 0.03,2.011 ± 0.0083,0.52 ± 0.17,2.019 ± 0.02
AGCACU,0.282 ± 0.032,2.02 ± 0.025,0.113 ± 0.16,2 ± 0.028
CGGGUA,-0.402 ± 0.16,1.939 ± 0.018,-0.606 ± 0.59,1.97 ± 0.054
GGGUAA,0.299 ± 0.036,1.997 ± 0.011,0.348 ± 0.28,2 ± 0.026
